These results are taken from IntAct's records for PubMed 31515488.

B1: Zinc finger protein Aiolos (Homo sapiens), Q9UKT9 (parent)
chain: MEDIQTNAELKSTQEQSVPAESAAVLNDYSLTKSHEMENVDSGEGPANEDEDIGDDSMKVKDEYSERDENVLKSEPMGNAEEPEIPYSYSREYNEYENIKLERHVVSFDSSRPTSGKMNCDVCGLSCISFNVLMVHKRSHTGERPFQCNQCGASFTQKGNLLRHIKLHTGEKPFKCHLCNYACQRRDALTGHLRTHSVEKPYKCEFCGRSYKQRSSLEEHKERCRTFLQSTDPGDTASAEARHIKAEMGSERALVLDRLASNVAKRKSSMPQKFIGEKRHCFDVNYNSSYMYEKESELIQTRMMDQAINNAISYLGAEALRPLVQTPPAPTSEMVPVISSMYPIALTRAEMSNGAPQELEKKSIHLPEKSVPSERGLSPNNSGHDSTDTDSNHEERQNHIYQQNHMVLSRARNGMPLLKEVPRSYELLKPPPICPRDSVKVINKEGEVMDVYRCDHCRVLFLDYVMFTIHMGCHGFRDPFECNMCGYRSHDRYEFSSHIARGEHRALLK
B2: LIM/homeobox protein Lhx4 (Homo sapiens), Q969G2 (parent)
chain: MMQSATVPAEGAVKGLPEMLGVPMQQIPQCAGCNQHILDKFILKVLDRHWHSSCLKCADCQMQLADRCFSRAGSVYCKEDFFKRFGTKCTACQQGIPPTQVVRKAQDFVYHLHCFACIICNRQLATGDEFYLMEDGRLVCKEDYETAKQNDDSEAGAKRPRTTITAKQLETLKNAYKNSPKPARHVREQLSSETGLDMRVVQVWFQNRRAKEKRLKKDAGRHRWGQFYKSVKRSRGSSKQEKESSAEDCGVSDSELSFREDQILSELGHTNRIYGNVGDVTGGQLMNGSFSMDGTGQSYQDLRDGSPYGIPQSPSSISSLPSHAPLLNGLDYTVDSNLGIIAHAGQGVSQTLRAMAGGPTSDISTGSSVGYPDFPTSPGSWLDEMDHPPF
partner: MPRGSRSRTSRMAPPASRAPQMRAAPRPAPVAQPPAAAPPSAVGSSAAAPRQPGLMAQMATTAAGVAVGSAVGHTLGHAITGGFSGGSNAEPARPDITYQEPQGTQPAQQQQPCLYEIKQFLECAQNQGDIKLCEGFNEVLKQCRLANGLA
B3: Protein FRA10AC1 (Homo sapiens), Q70Z53 (parent)
chain: MHGHGGYDSDFSDDERCGESSKRKKRTVEDDLLLQKPFQKEKHGKVAHKQVAAELLDREEARNRRFHLIAMDAYQRHTKFVNDYILYYGGKKEDFKRLGENDKTDLDVIRENHRFLWNEEDEMDMTWEKRLAKKYYDKLFKEYCIADLSKYKENKFGFRWRVEKEVISGKGQFFCGNKYCDKKEGLKSWEVNFGYIEHGEKRNALVKLRLCQECSIKLNFHHRRKEIKSKKRKDKTKKDCEESSHKKSRLSSAEEASKKKDKGHSSSKKSEDSLLRNSDEEESASESELWKGPLPETDEKSQEEEFDEYFQDLFL
B4: Notch homolog 2 N-terminal-like protein A (Homo sapiens), Q7Z3S9 (parent)
chain: MCVTYHNGTGYCKCPEGFLGEYCQHRDPCEKNRCQNGGTCVAQAMLGKATCRCASGFTGEDCQYSTSHPCFVSRPCLNGGTCHMLSRDTYECTCQVGFTGKECQWTDACLSHPCANGSTCTTVANQFSCKCLTGFTGQKCETDVNECDIPGHCQHGGTCLNLPGSYQCQCLQGFTGQYCDSLYVPCAPSPCVNGGTCRQTGDFTFECNCLPETVRRGTELWERDREVWNGKEHDEN

In one assay the parent is B1. The settings on record: with aakb2_human PRKAB2, O43741.
Sequence of aakb2_human PRKAB2, O43741 (O43741 whole entry): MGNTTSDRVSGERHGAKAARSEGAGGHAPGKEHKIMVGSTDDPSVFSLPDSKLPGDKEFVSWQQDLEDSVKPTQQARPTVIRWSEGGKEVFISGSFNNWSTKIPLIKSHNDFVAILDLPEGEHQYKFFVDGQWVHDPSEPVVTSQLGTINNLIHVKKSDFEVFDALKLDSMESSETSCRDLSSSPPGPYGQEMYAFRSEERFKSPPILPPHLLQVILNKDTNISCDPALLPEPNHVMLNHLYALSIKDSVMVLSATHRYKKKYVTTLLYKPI
Regarding N119D, the “effect of a mutation on the interaction” value is on record as “with no effect”.

Regarding A24V, the “effect of a mutation on the interaction” value is on record as “with no effect”.

The variants in the next assay derive from B1. The settings on record: with exoc8_human EXOC8, Q8IYI6.
Sequence of exoc8_human EXOC8, Q8IYI6 (Q8IYI6 whole entry): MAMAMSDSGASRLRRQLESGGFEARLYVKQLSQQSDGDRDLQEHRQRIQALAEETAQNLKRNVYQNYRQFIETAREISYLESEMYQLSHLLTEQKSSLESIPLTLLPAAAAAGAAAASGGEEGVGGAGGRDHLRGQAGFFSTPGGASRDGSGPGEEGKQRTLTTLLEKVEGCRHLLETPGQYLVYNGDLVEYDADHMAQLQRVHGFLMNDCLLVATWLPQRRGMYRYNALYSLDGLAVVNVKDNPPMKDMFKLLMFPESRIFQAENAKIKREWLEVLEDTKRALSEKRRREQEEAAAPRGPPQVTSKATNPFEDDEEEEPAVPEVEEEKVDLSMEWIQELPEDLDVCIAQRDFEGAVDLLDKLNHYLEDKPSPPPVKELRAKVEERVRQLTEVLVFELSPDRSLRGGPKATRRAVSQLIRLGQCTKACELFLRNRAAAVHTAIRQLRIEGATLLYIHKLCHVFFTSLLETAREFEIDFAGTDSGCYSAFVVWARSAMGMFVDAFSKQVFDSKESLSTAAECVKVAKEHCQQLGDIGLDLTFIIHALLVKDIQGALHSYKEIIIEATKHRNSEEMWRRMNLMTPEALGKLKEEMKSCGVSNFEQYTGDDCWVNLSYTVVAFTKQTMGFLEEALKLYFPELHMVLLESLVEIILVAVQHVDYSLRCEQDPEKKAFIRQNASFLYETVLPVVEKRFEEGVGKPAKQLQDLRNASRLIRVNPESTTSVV
With N119D, the “effect of a mutation on the interaction” value is on record as “with no effect”.

On to A24V, for which the “effect of a mutation on the interaction” value is “with no effect”.

The next assay covers variants of B1. Particulars: with tb22b_human TBC1D22B.
Consider N119D, for which the “effect of a mutation on the interaction” value is reported as “with no effect”.

For the variant A24V, the “effect of a mutation on the interaction” value was “with no effect”.

Variants of B1 are the subject of another assay. The settings on record: with p85b_human PIK3R2, O00459.
Sequence of p85b_human PIK3R2, O00459 (O00459 whole entry): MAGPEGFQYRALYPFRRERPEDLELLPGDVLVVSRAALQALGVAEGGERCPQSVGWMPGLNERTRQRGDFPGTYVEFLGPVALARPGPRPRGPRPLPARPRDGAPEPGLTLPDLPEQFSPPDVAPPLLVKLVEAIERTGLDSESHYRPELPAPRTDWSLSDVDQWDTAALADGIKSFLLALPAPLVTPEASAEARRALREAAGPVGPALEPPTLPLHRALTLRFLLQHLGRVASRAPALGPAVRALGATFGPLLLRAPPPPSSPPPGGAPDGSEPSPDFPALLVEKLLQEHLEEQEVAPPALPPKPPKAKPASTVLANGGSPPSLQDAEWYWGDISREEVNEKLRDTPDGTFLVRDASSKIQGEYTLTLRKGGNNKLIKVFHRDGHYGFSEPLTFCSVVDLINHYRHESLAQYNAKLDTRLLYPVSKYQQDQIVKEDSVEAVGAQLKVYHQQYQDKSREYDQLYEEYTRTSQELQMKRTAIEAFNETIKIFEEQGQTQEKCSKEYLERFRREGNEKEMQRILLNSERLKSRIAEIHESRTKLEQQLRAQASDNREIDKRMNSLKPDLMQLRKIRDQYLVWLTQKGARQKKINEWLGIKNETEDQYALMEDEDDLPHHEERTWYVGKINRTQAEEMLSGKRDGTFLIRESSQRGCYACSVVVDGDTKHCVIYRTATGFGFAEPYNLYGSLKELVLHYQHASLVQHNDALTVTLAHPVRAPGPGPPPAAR
In the case of N119D, the “effect of a mutation on the interaction” value is listed as “disrupting interaction strength”.

In the case of A24V, the “effect of a mutation on the interaction” value was “with no effect”.

Another assay covers variants of B1. The settings on record: with rpac1_human POLR1C.
Take N119D: the “effect of a mutation on the interaction” value is “with no effect”.

A24V: the “effect of a mutation on the interaction” value is “with no effect”.

Variants of B1 are the subject of the next assay. The settings on record: with pfd5_human PFDN5, Q99471.
Sequence of pfd5_human PFDN5, Q99471 (Q99471 whole entry): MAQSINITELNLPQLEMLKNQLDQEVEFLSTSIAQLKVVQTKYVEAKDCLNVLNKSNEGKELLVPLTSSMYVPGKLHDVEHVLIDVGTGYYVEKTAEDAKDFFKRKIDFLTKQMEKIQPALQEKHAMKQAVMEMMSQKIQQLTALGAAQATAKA
In the case of N119D, the “effect of a mutation on the interaction” value is “with no effect”.

In the case of A24V, the “effect of a mutation on the interaction” value was “with no effect”.

In the next assay the parent is B1. Particulars: with nek6_human NEK6, Q9HC98.
Sequence of nek6_human NEK6, Q9HC98 (Q9HC98 whole entry): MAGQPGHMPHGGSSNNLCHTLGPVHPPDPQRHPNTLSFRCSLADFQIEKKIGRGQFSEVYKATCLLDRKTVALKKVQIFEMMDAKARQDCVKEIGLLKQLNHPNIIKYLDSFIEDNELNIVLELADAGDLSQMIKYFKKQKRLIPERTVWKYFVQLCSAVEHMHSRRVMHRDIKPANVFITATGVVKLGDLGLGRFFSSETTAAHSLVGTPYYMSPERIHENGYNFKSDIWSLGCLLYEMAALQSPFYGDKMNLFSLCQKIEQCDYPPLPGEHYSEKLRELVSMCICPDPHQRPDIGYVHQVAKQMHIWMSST
For the variant N119D, the “effect of a mutation on the interaction” value was “with no effect”.

Take A24V: the “effect of a mutation on the interaction” value was “with no effect”.

Another assay covers variants of B1. Particulars: with exos5_human EXOSC5, Q9NQT4.
Sequence of exos5_human EXOSC5, Q9NQT4 (Q9NQT4 whole entry): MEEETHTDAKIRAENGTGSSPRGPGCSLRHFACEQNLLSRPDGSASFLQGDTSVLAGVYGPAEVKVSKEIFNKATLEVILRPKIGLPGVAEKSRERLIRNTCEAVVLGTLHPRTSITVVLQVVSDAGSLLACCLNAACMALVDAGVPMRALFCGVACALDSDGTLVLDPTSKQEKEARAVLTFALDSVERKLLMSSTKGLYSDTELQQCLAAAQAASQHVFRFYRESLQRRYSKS
Turning to N119D, the “effect of a mutation on the interaction” value is reported as “with no effect”.

On to A24V, for which the “effect of a mutation on the interaction” value was “with no effect”.

The variants in another assay derive from B1. Particulars: with tstd2_human TSTD2, Q5T7W7.
Sequence of tstd2_human TSTD2, Q5T7W7 (Q5T7W7 whole entry): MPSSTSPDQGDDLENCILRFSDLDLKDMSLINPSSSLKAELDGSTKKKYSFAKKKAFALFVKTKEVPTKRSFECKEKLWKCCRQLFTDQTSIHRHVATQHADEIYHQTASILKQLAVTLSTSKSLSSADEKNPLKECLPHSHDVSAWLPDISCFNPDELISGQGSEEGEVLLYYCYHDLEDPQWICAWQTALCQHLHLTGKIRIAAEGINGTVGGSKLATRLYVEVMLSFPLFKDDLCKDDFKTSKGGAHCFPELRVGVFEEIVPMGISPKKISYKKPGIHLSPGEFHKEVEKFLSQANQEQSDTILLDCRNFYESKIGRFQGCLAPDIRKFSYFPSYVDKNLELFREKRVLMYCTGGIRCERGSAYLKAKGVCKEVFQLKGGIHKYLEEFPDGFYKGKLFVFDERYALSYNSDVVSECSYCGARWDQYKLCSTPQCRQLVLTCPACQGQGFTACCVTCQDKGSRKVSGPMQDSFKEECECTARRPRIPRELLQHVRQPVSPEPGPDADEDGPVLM
N119D: the “effect of a mutation on the interaction” value is “with no effect”.

In the case of A24V, the “effect of a mutation on the interaction” value was “with no effect”.

In another assay the parent is B2. Particulars: with chch2_human CHCHD2, Q9Y6H1.
Turning to N328S, the “effect of a mutation on the interaction” value is “with no effect”.

The variants in a further assay derive from B3. The settings on record: with tri41_human TRIM41, Q8WV44.
Turning to S251F, the “effect of a mutation on the interaction” value is “with no effect”.

In another assay the parent is B4. The settings on record: with pde9a_human PDE9A.
For R74Q, the “effect of a mutation on the interaction” value was “with no effect”.

Another assay covers variants of B4. The settings on record: with ppbi_human ALPI.
For R74Q, the “effect of a mutation on the interaction” value is reported as “with no effect”.

Variants of B4 are the subject of the next assay. The settings on record: with snai1_human SNAI1, O95863.
Sequence of snai1_human SNAI1, O95863 (O95863 whole entry): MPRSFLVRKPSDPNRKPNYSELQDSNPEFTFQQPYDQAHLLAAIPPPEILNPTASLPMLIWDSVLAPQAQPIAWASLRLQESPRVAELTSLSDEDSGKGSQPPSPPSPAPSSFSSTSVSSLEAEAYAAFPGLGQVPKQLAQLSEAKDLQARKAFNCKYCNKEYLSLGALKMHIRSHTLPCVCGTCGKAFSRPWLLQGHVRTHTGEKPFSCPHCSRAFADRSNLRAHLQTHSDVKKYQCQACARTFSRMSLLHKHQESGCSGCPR
As for R74Q, the “effect of a mutation on the interaction” value is listed as “with no effect”.

The variants in another assay derive from B4. The settings on record: with anfb_human NPPB.
Turning to R74Q, the “effect of a mutation on the interaction” value is given as “with no effect”.

In the next assay the parent is B4. The settings on record: with adck5_human ADCK5, Q3MIX3.
For the variant R74Q, the “effect of a mutation on the interaction” value is listed as “with no effect”.

Variants of B4 are the subject of a further assay. The settings on record: with catz_human CTSZ.
As for R74Q, the “effect of a mutation on the interaction” value is on record as “with no effect”.

Variants of B4 are the subject of a further assay. The settings on record: with txnd5_human TXNDC5, Q8NBS9.
As to R74Q, the “effect of a mutation on the interaction” value was “with no effect”.

In the next assay the parent is B4. Particulars: with trpv6_human TRPV6, Q9H1D0.
Consider R74Q, for which the “effect of a mutation on the interaction” value is given as “with no effect”.

Variants of B4 are the subject of a further assay. The settings on record: with ptn23_human PTPN23, Q9H3S7.
With R74Q, the “effect of a mutation on the interaction” value was “with no effect”.

In the next assay the parent is B4. Particulars: with gata2_human GATA2, P23769.
Sequence of gata2_human GATA2, P23769 (P23769 whole entry): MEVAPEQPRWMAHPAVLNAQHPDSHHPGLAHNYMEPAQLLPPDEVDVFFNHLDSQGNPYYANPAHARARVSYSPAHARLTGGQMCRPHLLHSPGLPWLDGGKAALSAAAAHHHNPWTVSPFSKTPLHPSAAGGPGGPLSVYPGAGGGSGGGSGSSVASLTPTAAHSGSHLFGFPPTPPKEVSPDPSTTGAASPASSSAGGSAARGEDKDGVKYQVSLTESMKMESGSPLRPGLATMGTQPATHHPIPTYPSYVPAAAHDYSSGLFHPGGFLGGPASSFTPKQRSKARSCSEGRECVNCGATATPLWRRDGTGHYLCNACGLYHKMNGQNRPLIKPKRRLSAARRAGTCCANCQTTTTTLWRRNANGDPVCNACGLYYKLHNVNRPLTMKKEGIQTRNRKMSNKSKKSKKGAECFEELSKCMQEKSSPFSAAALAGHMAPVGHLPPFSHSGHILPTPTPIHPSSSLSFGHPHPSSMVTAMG
Regarding R74Q, the “effect of a mutation on the interaction” value is “with no effect”.

The variants in the next assay derive from B4. Particulars: with hbaz_human HBZ.
In the case of R74Q, the “effect of a mutation on the interaction” value is “with no effect”.

The next assay covers variants of B4. The settings on record: with nect3_human NECTIN3, Q9NQS3.
Turning to R74Q, the “effect of a mutation on the interaction” value is “with no effect”.

The next assay covers variants of B4. Particulars: with cd5r1_human CDK5R1, Q15078.
On to R74Q, for which the “effect of a mutation on the interaction” value was “with no effect”.

In a further assay the parent is B4. The settings on record: with uxt_human UXT.
Take R74Q: the “effect of a mutation on the interaction” value was “with no effect”.

The variants in a further assay derive from B4. The settings on record: with yipf3_human YIPF3, Q9GZM5.
Sequence of yipf3_human YIPF3, Q9GZM5 (Q9GZM5 whole entry): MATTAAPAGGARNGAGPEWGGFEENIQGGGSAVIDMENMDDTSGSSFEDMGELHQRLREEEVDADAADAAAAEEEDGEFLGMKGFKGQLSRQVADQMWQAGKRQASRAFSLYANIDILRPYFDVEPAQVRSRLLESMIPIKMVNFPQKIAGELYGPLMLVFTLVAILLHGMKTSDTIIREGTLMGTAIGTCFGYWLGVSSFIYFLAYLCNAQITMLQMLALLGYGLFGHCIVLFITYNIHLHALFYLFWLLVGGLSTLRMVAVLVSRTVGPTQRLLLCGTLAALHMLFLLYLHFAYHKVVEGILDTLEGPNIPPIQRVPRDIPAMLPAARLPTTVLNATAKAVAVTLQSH
For R74Q, the “effect of a mutation on the interaction” value is listed as “with no effect”.

Variants of B4 are the subject of another assay. The settings on record: with thms2_human THEMIS2, Q5TEJ8.
Sequence of thms2_human THEMIS2, Q5TEJ8 (Q5TEJ8 whole entry): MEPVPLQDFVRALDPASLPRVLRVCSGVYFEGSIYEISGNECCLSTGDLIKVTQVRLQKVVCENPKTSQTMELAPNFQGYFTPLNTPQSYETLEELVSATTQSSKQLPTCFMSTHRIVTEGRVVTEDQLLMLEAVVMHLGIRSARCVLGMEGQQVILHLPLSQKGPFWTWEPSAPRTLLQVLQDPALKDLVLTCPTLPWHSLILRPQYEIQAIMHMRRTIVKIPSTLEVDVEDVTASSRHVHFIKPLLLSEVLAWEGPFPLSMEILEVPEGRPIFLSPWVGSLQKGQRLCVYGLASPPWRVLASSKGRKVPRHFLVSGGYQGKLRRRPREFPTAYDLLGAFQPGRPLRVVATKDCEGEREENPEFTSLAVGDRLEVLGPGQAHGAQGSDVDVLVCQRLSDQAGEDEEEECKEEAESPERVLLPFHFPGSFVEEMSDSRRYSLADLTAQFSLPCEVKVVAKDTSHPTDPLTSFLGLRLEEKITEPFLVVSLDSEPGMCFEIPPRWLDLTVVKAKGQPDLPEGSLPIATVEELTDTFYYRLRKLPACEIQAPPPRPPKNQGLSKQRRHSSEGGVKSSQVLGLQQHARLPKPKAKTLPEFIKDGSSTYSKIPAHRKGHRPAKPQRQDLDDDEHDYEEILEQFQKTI
For R74Q, the “effect of a mutation on the interaction” value is reported as “with no effect”.

The next assay covers variants of B4. Particulars: with bmp7_human BMP7, P18075.
As to R74Q, the “effect of a mutation on the interaction” value is “with no effect”.

Variants of B4 are the subject of the next assay. Particulars: with cxcl5_human CXCL5, P42830.
Sequence of cxcl5_human CXCL5, P42830 (P42830 whole entry): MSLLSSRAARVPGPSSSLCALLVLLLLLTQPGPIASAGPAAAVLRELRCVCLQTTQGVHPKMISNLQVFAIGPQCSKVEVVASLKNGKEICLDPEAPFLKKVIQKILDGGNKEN
For the variant R74Q, the “effect of a mutation on the interaction” value is given as “with no effect”.
